{"source": "patent US11471494B2", "about": "“Microorganisms programmed to produce immune modulators and anti-cancer therapeutics in tumor cells” (Synlogic Operating Company, Inc., priority 2017, dated 2022)", "molecules": {"B1": {"name": "Secreted anti-mCD47 scFv: anti-mCD47 scFv secreted by engineered Nissle (SYN3161), in supernatant (protein)", "scFv": "QVKLLQSGAALVKPGASVKMSCQASGYSFTDYWVTWVKQSHGQSLEWIGEIYPSNTVTNFNDNFKGKATLTVDKSTSTAYMELSRLTSEDSAIYYCTRIGNSGYRVGWFIYWGQGTLVTVLSGGGGSGGGGSGGGGSDTVLTQSPALAVSPGERVTISCKASESVSSHMHWYQQKPGQQPKLLIYKASNLASGVPARFSGSGSGTDFTLTIDPVEADDTATYFCQQGWNGPFTFGAGTRLELKRADAAGSGELGGSGKPIPNPLLGLDSTGSGHHHHHH"}, "B2": {"name": "murine SIRPalpha: tet-inducible murine SIRPalpha secreted from an E. coli Nissle strain (protein, UniProt P97797 32-513, looked up)", "Tyrosine-protein phosphatase …": "KELKVTQPEKSVSVAAGDSTVLNCTLTSLLPVGPIRWYRGVGPSRLLIYSFAGEYVPRIRNVSDTTKRNNMDFSIRISNVTPADAGIYYCVKFQKGSSEPDTEIQSGGGTEVYVLAKPSPPEVSGPADRGIPDQKVNFTCKSHGFSPRNITLKWFKDGQELHPLETTVNPSGKNVSYNISSTVRVVLNSMDVNSKVICEVAHITLDRSPLRGIANLSNFIRVSPTVKVTQQSPTSMNQVNLTCRAERFYPEDLQLIWLENGNVSRNDTPKNLTKNTDGTYNYTSLFLVNSSAHREDVVFTCQVKHDQQPAITRNHTVLGFAHSSDQGSMQTFPDNNATHNWNVFIGVGVACALLVVLLMAALYLLRIKQKKAKGSTSSTRLHEPEKNAREITQVQSLIQDTNDINDITYADLNLPKEKKPAPRAPEPNNHTEYASIETGKVPRPEDTLTYADLDMVHLSRAQPAPKPEPSFSEYASVQVQRK"}, "B3": {"name": "J43-scFv-V5: single-chain variable fragment based on J43 monoclonal antibody against mouse PD-1, V5 and HIS tagged, expressed in E. coli (protein)", "scFv": "MQLEVRLLESGGGLVKPEGSLKLSCVASGFTFSDYFMSWVRQAPGKGLEWVAHIYTKSYNYATYYSGSVKGRFTISRDDSRSMVYLQMNNLRTEDTATYYCTRDGSGYPSLDFWGQGTQVTVSSGGGGSGGGGSGGGGSYELTQPPSASVNVGETVKITCSGDQLPKYFADWFHQRSDQTILQVIYDDNKRPSGIPERISGSSSGTTATLTIRDVRAEDEGDYYCFSGYVDSDSKLYVFGSGTQLTVLGKGELNSKLEGKPIPNPLLGLDSTRTGHHHHHH"}}, "key": {"[1]": {"assay": "SIRPα/CD47 ELISA binding assay, control coatings", "conditions": "supernatant"}, "mCD47": {"biological_target": "T1, mCD47 (Mus musculus, UniProt Q61735)", "T1 sequence (Q61735 19-303)": "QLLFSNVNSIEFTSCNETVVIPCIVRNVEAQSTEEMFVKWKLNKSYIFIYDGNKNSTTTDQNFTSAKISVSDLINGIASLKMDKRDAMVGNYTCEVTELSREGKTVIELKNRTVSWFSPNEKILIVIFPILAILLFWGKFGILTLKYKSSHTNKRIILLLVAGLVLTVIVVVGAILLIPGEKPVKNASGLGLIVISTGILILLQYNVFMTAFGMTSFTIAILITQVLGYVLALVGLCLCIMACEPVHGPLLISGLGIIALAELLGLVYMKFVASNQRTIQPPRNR", "assay": "SIRPα/CD47 ELISA binding assay of supernatants", "conditions": "supernatant"}, "CD47 on mouse CT26 cells": {"biological_target": "T2, CD47 on mouse CT26 cells (Mus musculus, UniProt Q61735)", "T2 construct": "CT26 is a mouse colon carcinoma cell line which expresses CD47 on its cell surface; endogenous in cells; host or cells: CT26 mouse colon carcinoma cells", "T2 sequence (Q61735 19-303)": "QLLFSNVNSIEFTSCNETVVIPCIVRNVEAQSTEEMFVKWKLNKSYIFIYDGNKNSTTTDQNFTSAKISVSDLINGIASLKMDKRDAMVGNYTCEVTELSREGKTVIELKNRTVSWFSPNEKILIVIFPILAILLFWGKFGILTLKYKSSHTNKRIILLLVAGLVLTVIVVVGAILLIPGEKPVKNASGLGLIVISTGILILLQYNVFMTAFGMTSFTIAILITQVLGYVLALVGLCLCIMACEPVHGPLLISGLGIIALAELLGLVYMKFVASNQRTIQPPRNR", "assay": "flow cytometric analysis of CD47 expressing CT26 cells incubated with strain supernatants", "assay_type": "binding", "description": "FIG. 29 depicts a diagram of a flow cytometric analysis of CT26 cells.\nFIG. 30 depicts a diagram of a flow cytometric analysis of CT26 cells."}, "PD1 on mouse EL4 cells": {"biological_target": "T3, PD1 on mouse EL4 cells (Mus musculus, UniProt Q02242)", "T3 construct": "EL4 are a mouse lymphoma cell line which expresses PD1 on its cell surface; endogenous in cells; host or cells: EL4 mouse lymphoma cells", "T3 sequence (Q02242 25-288)": "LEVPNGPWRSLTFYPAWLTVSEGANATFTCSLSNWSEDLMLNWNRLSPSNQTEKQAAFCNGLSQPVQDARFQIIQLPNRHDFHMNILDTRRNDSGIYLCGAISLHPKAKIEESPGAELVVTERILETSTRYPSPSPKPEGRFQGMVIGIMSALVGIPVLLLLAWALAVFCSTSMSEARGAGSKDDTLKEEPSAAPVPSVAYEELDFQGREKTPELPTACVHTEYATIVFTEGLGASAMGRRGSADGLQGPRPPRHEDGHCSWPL", "assay": "Flow cytometry, binding of anti-PD1-scFv to EL4 cells", "assay_type": "cell-based", "description": "To determine whether anti-PD1-scFv expressed in E. coli binds to surface PD1 on mouse EL4 cells, flow cytometric analysis was performed using EL4 cells. EL4 are a mouse lymphoma cell line which expresses PD1 on its cell surface.\nEL4 cells were grown in Dulbecco's Modified Eagle's Medium (DMEM) with 10% FBS. Cells were spun down, supernatant was aspirated, pellet was resuspended in 1 ml D-PBS, transferred into chilled assay tubes (1×10^6 cells), and washed 2-3 times in D-PBS with 0.5% BSA. Cells were resuspended in PBS with 0.5% BSA, to which the purified scFv-V5 and anti-V5-FITC antibody were added and incubated for 1 hour at room temperature. Negative control left out scFv-V5. Cells were resuspended in 0.5 ml PBS and analyzed on a flow cytometer.\nEL4 are a mouse lymphoma cell line which expresses PD1 on its cell surface.\nEL4 cells were grown in Dulbecco's Modified Eagle's Medium (DMEM) with 10% FBS and 1% Penicillin-Streptomycin Cells were spun down, supernatant was aspirated, pellet was resuspended in 1 ml D-PBS, transferred into chilled assay tubes (1×10^6 cells), and washed 3 times in D-PBS. Cells were resuspended in D-PBS with 0.5% BSA, to which the purified scFv-V5 and anti-V5-FITC antibody were added and incubated for 1 hour at room temperature. Negative control left out secreted J43-scFv-V5. Cells were then resuspended in 0.5 ml PBS and analyzed on a flow cytometer. Results are shown in (FIG. 20)."}, "[2]": {"biological_target": "T4, mPD1 on the surface of EL4 cells (Mus musculus, UniProt Q02242)", "T4 construct": "EL4 are a mouse lymphoma cell line which expresses PD1 on its cell surface; endogenous in cells; host or cells: EL4 mouse lymphoma cells", "T4 sequence (Q02242 25-288)": "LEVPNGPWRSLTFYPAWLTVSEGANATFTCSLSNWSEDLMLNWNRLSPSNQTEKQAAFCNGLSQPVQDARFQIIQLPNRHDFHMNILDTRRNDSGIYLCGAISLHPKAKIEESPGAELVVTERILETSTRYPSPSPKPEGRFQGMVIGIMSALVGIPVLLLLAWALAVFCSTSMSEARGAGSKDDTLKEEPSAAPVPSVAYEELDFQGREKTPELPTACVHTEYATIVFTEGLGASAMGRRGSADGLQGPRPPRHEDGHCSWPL", "assay": "PDL1 competition assay on EL4 cells (flow cytometry)", "assay_type": "cell-based", "conditions": "PDL1 0, 5, 10 and 30 μg/mL", "description": "Next, a competition assay was conducted to determine whether PDL1 could inhibit the binding of the anti-PD1-scFv secreted by the genetically engineered bacteria from binding to murine PD1. EL4 cells were grown and flow cytometry protocol was conducted essentially as described above except that PDL1 was added at various concentrations (0, 5, 10, and 30 μg/mL) during the incubation of the secreted anti-PD1-scFv-V5. Rat-IgG was used as a negative control of secreted scFv."}, "mPD1": {"biological_target": "T5, mPD1 (Mus musculus, UniProt Q02242)", "T5 construct": "purchased Rndsystems", "T5 sequence (Q02242 25-288)": "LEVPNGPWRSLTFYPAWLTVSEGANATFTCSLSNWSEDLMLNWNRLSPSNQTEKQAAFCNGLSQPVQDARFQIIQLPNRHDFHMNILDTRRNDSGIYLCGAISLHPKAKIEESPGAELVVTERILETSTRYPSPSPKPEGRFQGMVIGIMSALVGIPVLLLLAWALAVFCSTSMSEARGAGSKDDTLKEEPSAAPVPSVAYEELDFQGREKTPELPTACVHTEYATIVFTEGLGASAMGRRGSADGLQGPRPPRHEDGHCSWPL", "assay": "ELISA binding assay of bacterial extracts (J43-scFv)", "conditions": "α-V5-HRP", "description": "(§1) E. coli comprising either tet-inducible J43-Anti-PD1-scFv-V5 or wild type controls were grown overnight in LB medium. […] Same amount of tetracycline was added to wild type control cultures.\n(§2) To determine whether the single-chain antibody purified from E. coli DH5α functionally binds to the target protein, PD1, an ELISA assay was performed."}, "[3]": {"assay": "ELISA binding assay of bacterial extracts (J43-scFv), control coatings", "conditions": "α-V5-HRP", "description": "as §1, §2"}}}
{"molecule": "B1", "values": [{"measurement": "ELISA signal, coating IgG", "setting": "[1]", "value": 0.067}, {"measurement": "ELISA signal, coating PBS", "setting": "[1]", "value": 0.053}, {"measurement": "ELISA signal, coating mCD47", "setting": "mCD47", "value": 0.527}]}
{"molecule": "B2", "values": [{"measurement": "competition of binding to CD47 on CT26 cells by recombinant SIRPalpha", "setting": "CD47 on mouse CT26 cells; FIG. 29", "value": "recombinant SIRPalpha can compete with the binding"}, {"measurement": "competition of binding to CD47 on CT26 cells by anti-CD47 antibody", "setting": "CD47 on mouse CT26 cells; FIG. 30", "value": "the antibody can compete with the binding"}]}
{"molecule": "B3", "values": [{"measurement": "Binding to EL4 cells", "setting": "PD1 on mouse EL4 cells; purified scFv with anti-V5-FITC, two batches", "value": "population shift"}, {"measurement": "Staining of EL4 cells", "setting": "PD1 on mouse EL4 cells; secreted scFv 0, 2, 5 and 15 μL", "value": "dose-dependent staining"}, {"measurement": "Binding to EL4 cells", "setting": "PD1 on mouse EL4 cells; secreted scFv with anti-V5-FITC", "value": "population shift"}, {"measurement": "Competition of PDL1 against binding of secreted scFv", "setting": "[2]", "value": "competed in a dose dependent manner"}, {"measurement": "ELISA signal at 450 nm, mPD1 coating", "setting": "mPD1; bacterial extract (1/2)", "value": 0.90}, {"measurement": "ELISA signal at 450 nm, mPD1 coating", "setting": "mPD1; bacterial extract", "value": 1.41}, {"measurement": "ELISA signal at 450 nm, IgG coating", "setting": "[3]; bacterial extract (1/2)", "value": 0.11}, {"measurement": "ELISA signal at 450 nm, PBS coating", "setting": "[3]; bacterial extract (1/2)", "value": 0.10}, {"measurement": "ELISA signal at 450 nm, IgG coating", "setting": "[3]; bacterial extract", "value": 0.13}, {"measurement": "ELISA signal at 450 nm, PBS coating", "setting": "[3]; bacterial extract", "value": 0.11}]}
